Experiment [1] concerns amino acid at a terminal position of a polypeptide. Particulars: amino acid identity at a terminal position of a polypeptide; phospho-Y also at an internal position; cited from earlier work.
Experiment [2] concerns peptide substrates. Format: biochemical.

Where a chain is given by its changes, count along the chain named. In names and notes the source's numbering stands. Like-named read-outs stand apart in the source and are kept apart here.

B1: H. sapiens Fyn SH2 domain: amino acid recognition protein, SEQ ID NO: 22 (protein, listed as Homo sapiens)
chain: MGAMDSIQAEEWYFGKLGRKDAERQLLSFGNPRGTFLIRESETTKGAYSLSIRDWDDMKGDHVKHYKIRKLDNGGYYITTRAQFETLQQLVQHYSERAAGLSSRLVVPSHK
On to B1, for which, in experiment [1], the “Binding Pref.” value was “phospho-Y”.

B2: UBR-box domain from Homo sapiens UBR2: amino acid recognition protein, SEQ ID NO: 33 (protein, listed as Homo sapiens)
chain: MGPLGSLCGRVFKVGEPTYSCRDCAVDPTCVLCMECFLGSIHRDHRYRMTTSGGGGFCDCGDTEAWKEGPYCQKHE
B2: the “Binding Pref.” value in experiment [1] is recorded as “K, R, H”.

B3: VPr pAzF (protein)
chain: MPPITQQATVTAWLPQVDASQITGTISSLESFTNRFYTTTSGAQASDWIASEWQALSASLPNASVKQVSHSGYNQKSVVMTITGSEAPDEWIVIGGHLDSTIGSHTNEQSVAPGADDDASGIAAVTEVIRVLSENNFQPKRSIAFMAYAAEEVGLRGSQDLANQYKSEGKNVVSALQLDMTNYKGSAQDVVFITDYTDSNFTQYLTQLMDEYLPSLTYGFDTCGYACSDHASWHNAGYPAAMPFESKFNDYNPRIHTTQDTLANSDPTGSHAKKFTQLGLAYAIEMGSATGDTPTPGNQ
modifications: non-natural residues
In the case of B3, the “HPLC Assay Conv” value in experiment [2] (substrate […]{LYSN3}NH2 (SEQ ID NO: 107), 200 μM Peptide, 4 μM enzyme, 10 mM MgCl2, 50 mM MOPS pH 8.0, 37° C./1 hr) amounted to 96%.

B4: Saccharomyces cerevisiae GID10: amino acid recognition protein, SEQ ID NO: 31 (protein, listed as Saccharomyces cerevisiae)
chain: MTSLNIMGRKFILERAKRNDNIEEIYTSAYVSLPSSTDTRLPHFKAKEEDCDVYEEGTNLVGKNAKYTYRSLGRHLDFLRPGLRFGGSQSSKYTYYTVEVKIDTVNLPLYKDSRSLDPHVTGTFTIKNLTPVLDKVVTLFEGYVINYNQFPLCSLHWPAEETLDPYMAQRESDCSHWKRFGHFGSDNWSLTERNFGQYNHESAEFMNQRYIYLKWKERFLLDDEEQENQMLDDNHHLEGASFEGFYYVCLDQLTGSVEGYYYHPACELFQKLELVPTNCDALNTYSSGFEIA
B4: the “Binding Pref.” value in experiment [1] is on record as “P, M, V”.

B5: V. anguillarum APN (protein)
chain: MEEKVWISIGGDATQTALRSGAQSLLPENLINQTSVWVGQVPVSELATLSHEMHENHQRCGGYMVHPSAQSAMSVSAMPLNLNAFSAPEITQQTTVNAWLPSVSAQQITSTITTLTQFKNRFYTTSTGAQASNWIADHWRSLSASLPASKVEQITHSGYNQKSVMLTITGSEKPDEWVVIGGHLDSTLGSRTNESSIAPGADDDASGIAGVTEIIRLLSEQNFRPKRSIAFMAYAAEEVGLRGSQDLANRFKAEGKKVMSVMQLDMTNYQGSREDIVFITDYTDSNFTQYLTQLLDEYLPSLTYGFDTCGYACSDHASWHAVGYPAAMPFESKFNDYNPNIHSPQDTLQNSDPTGFHAVKFTKLGLAYVVEMGNASTPPTPSNQLKNGVPVNGLSASRNSKTWYQFELQEAGNLSIVLSGGSGDADLYVKYQTDADLQQYDCRPYRSGNNETCQFSNAQPGRYSILLHGYNNYSNASLVANAQ
In the case of B5, the “HPLC Assay Conv” value is reported as 50% in experiment [2] (substrate AAPAAP{LYSN3}NH2 (SEQ ID NO: 98), 1 mM peptide, 2 μM enzyme, 2.5 mM ZnCl2, 25 mM Tris pH 8.0, 30° C./1 hr); <5% in experiment [2] (substrate KKPKKP{LYSN3}NH2 (SEQ ID NO: 100), 1 mM peptide, 2 μM enzyme, 2.5 mM ZnCl2, 25 mM Tris pH 8.0, 30° C./1 hr); >90% in experiment [2] (substrate RRPRRP{LYSN3}NH2 (SEQ ID NO: 96), 1 mM peptide, 2 μM enzyme, 2.5 mM ZnCl2, 25 mM Tris pH 8.0, 30° C./1 hr).

B6: UBR-box domain from Homo sapiens UBR1: amino acid recognition protein, SEQ ID NO: 32 (protein, listed as Homo sapiens)
chain: MGPLGSLCGRVFKSGETTYSCRDCAIDPTCVLCMDCFQDSVHKNHRYKMHTSTGGGFCDCGDTEAWKTGPFCVNHEP
B6: the “Binding Pref.” value in experiment [1] is on record as “K, R, H”.

B7: P. falciparum M1 (protein, listed as Plasmodium falciparum)
chain: PKIHYRKDYKPSGFIINQVTLNINIHDQETIVRSVLDMDISKHNVGEDLVFDGVGLKINEISINNKKLVEGEEYTYDNEFLTIFSKFVPKSKFAFSSEVIIHPETNYALTGLYKSKNIIVSQCEATGFRRITFFIDRPDMMAKYDVTVTADKEKYPVLLSNGDKVNEFEIPGGRHGARFNDPPLKPCYLFAVVAGDLKHLSATYITKYTKKKVELYVFSEEKYVSKLQWALECLKKSMAFDEDYFGLEYDLSRLNLVAVSDFNVGAMENKGLNIFNANSLLASKKNSIDFSYARILTVVGHEYFHQYTGNRVTLRDWFQLTLKEGLTVHRENLFSEEMTKTVTTRLSHVDLLRSVQFLEDSSPLSHPIRPESYVSMENFYTTTVYDKGSEVMRMYLTILGEEYYKKGFDIYIKKNDGNTATCEDFNYAMEQAYKMKKADNSANLNQYLLWFSQSGTPHVSFKYNYDAEKKQYSIHVNQYTKPDENQKEKKPLFIPISVGLINPENGKEMISQTTLELTKESDTFVFNNIAVKPIPSLFRGFSAPVYIEDQLTDEERILLLKYDSDAFVRYNSCTNIYMKQILMNYNEFLKAKNEKLESFQLTPVNAQFIDAIKYLLEDPHADAGFKSYIVSLPQDRYIINFVSNLDTDVLADTKEYIYKQIGDKLNDVYYKMFKSLEAKADDLTYFNDESHVDFDQMNMRTLRNTLLSLLSKAQYPNILNEIIEHSKSPYPSNWLTSLSVSAYFDKYFELYDKTYKLSKDDELLLQEWLKTVSRSDRKDIYEILKKLENEVLKDSKNPNDIRAVYLPFTNNLRRFHDISGKGYKLIAEVITKTDKFNPMVATQLCEPFKLWNKLDTKRQELMLNEMNTMLQEPQISNNLKEYLLRLTNK
On to B7, for which the “HPLC Assay Conv” value in experiment [2] (substrate MetTyr, 1 mM peptide, 1 mM enzyme, 2.5 mM ZnCl2 25 mM Tris pH 8.0, 30° C./1 hr) is listed as 7%.

B8: P. horikoshii Tet (protein)
chain: MEVRNMVDYELLKKVVEAPGVSGYEFLGIRDVVIEEIKDYVDEVKVDKLGNVIAHKKGEGPKVMIAAHMDQIGLMVTHIEKNGFLRVAPIGGVDPKTLIAQRFKVWIDKGKFIYGVGASVPPHIQKPEDRKKAPDWDQIFIDIGAESKEEAEDMGVKIGTVITWDGRLERLGKHRFVSIAFDDRIAVYTILEVAKQLKDAKADVYFVATVQEEVGLRGARTSAFGIEPDYGFAIDVTIAADIPGTPEHKQVTHLGKGTAIKIMDRSVICHPTIVRWLEELAKKHEIPYQLEILLGGGTDAGAIHLTKAGVPTGALSVPARYIHSNTEVVDERDVDATVELMTKALENIHELKI
As to B8, the “HPLC Assay Conv” value amounted to 100% in experiment [2] (substrate AAPAAP{LYSN3}NH2 (SEQ ID NO: 90), 1 mM peptide, 1 mM enzyme, 2.5 mM ZnCl2, 25 mM Tris pH 8.0, 70° C./1 hr); 60% in experiment [2] (substrate DDMDDM{LYSN3}NH2 (SEQ ID NO: 72), 1 mM peptide, 1 mM enzyme, 2.5 mM ZnCl2, 25 mM Tris pH 8.0, 70° C./1 hr); 100% in experiment [2] (substrate FFPFFP{LYSN3}NH2 (SEQ ID NO: 94), 1 mM peptide, 1 mM enzyme, 2.5 mM ZnCl2, 25 mM Tris pH 8.0, 70° C./1 hr); 100% in experiment [2] (substrate YYPYYP{LYSN3}NH2 (SEQ ID NO: 92), 1 mM peptide, 1 mM enzyme, 2.5 mM ZnCl2, 25 mM Tris pH 8.0, 70° C./1 hr).

B9: Agrobacterium tumifaciens ClpS2: amino acid recognition protein, SEQ ID NO: 2 (protein, listed as Agrobacterium tumifaciens)
chain: MSDSPVDLKPKPKVKPKLERPKLYKVMLLNDDYTPREFVTVVLKAVFRMSEDTGRRVMMTAHRFGSAVVVVCERDIAETKAKEATDLGKEAGFPLMFTTEPEE
For B9, the “Binding Pref.” value in experiment [1] is listed as “F, W, Y”.

B10: Agrobacterium tumifaciens ClpS2 variant 1 C72S: amino acid recognition protein, SEQ ID NO: 5 (protein, listed as Agrobacterium tumifaciens)
chain: B9 chain with R36M, E37S, C72S
B10: the “Binding Pref.” value in experiment [1] is recorded as “F, W, Y”.

B11: Agrobacterium tumifaciens ClpS2 C71S: amino acid recognition protein, SEQ ID NO: 3 (protein, listed as Agrobacterium tumifaciens)
chain: B9 chain with C72S
As to B11, in experiment [1], the “Binding Pref.” value is listed as “F, W, Y”.

B12: NPEPPS: puromycin-sensitive aminopeptidase, SEQ ID NO: 56 (protein)
chain: MWLAAAAPSLARRLLFLGPPPPPLLLLVFSRSSRRRLHSLGLAAMPEKRPFERLPADVSPINYSLCLKPDLLDFTFEGKLEAAAQVRQATNQIVMNCADIDIITASYAPEGDEEIHATGFNYQNEDEKVTLSFPSTLQTGTGTLKIDFVGELNDKMKGFYRSKYTTPSGEVRYAAVTQFEATDARRAFPCWDEPAIKATFDISLVVPKDRVALSNMNVIDRKPYPDDENLVEVKFARTPVMSTYLVAFVVGEYDFVETRSKDGVCVRVYTPVGKAEQGKFALEVAAKTLPFYKDYFNVPYPLPKIDLIAIADFAAGAMENWGLVTYRETALLIDPKNSCSSSRQWVALVVGHELAHQWFGNLVTMEWWTHLWLNEGFASWIEYLCVDHCFPEYDIWTQFVSADYTRAQELDALDNSHPIEVSVGHPSEVDEIFDAISYSKGASVIRMLHDYIGDKDFKKGMNMYLTKFQQKNAATEDLWESLENASGKPIAAVMNTWTKQMGFPLIYVEAEQVEDDRLLRLSQKKFCAGGSYVGEDCPQWMVPITISTSEDPNQAKLKILMDKPEMNVVLKNVKPDQWVKLNLGTVGFYRTQYSSAMLESLLPGIRDLSLPPVDRLGLQNDLFSLARAGIISTVEVLKVMEAFVNEPNYTVWSDLSCNLGILSTLLSHTDFYEEIQEFVKDVFSPIGERLGWDPKPGEGHLDALLRGLVLGKLGKAGHKATLEEARRRFKDHVEGKQILSADLRSPVYLTVLKHGDGTTLDIMLKLHKQADMQEEKNRIERVLGATLLPDLIQKVLTFALSEEVRPQDTVSVIGGVAGGSKHGRKAAWKFIKDNWEELYNRYQGGFLISRLIKLSVEGFAVDKMAGEVKAFFESHPAPSAERTIQQCCENILLNAAWLKRDAESIHQYLLQRKASPPTV
modifications: Puromycin-sensitive aminopeptidase
B12: the “HPLC Assay Conv” value in experiment [2] (substrate LeuTyr 5 mM, 700 nM enzyme, 25 mM HEPES, 1 mM Mg(OAc)2, 1 mM DTT, pH 7.5, 37° C./1 hr) came to 5%.

Source of the values: patent US12618845B2, “Methods and compositions for protein sequencing” (Quantum-Si Incorporated, priority 2018, dated 2026).
